Measurements from patent US20240252641A1.

What was measured:
[1] = biological target: CD70 on cells (CHO-CD70, JVM-3, U266, Raji, THP-1, T cells) (human) (UniProt P32970); test: on Raji cells
[2] = biological target: CD70 on cells (CHO-CD70, JVM-3, U266, Raji, THP-1, T cells) (human) (UniProt P32970); test: on JVM-3 cells
[3] = biological target: CD70 on cells (CHO-CD70, JVM-3, U266, Raji, THP-1, T cells) (human) (UniProt P32970); test: on U266 cells

Sequence of CD70 on cells (CHO-CD70, JVM-3, U266, Raji, THP-1, T cells) (human) (P32970 whole entry): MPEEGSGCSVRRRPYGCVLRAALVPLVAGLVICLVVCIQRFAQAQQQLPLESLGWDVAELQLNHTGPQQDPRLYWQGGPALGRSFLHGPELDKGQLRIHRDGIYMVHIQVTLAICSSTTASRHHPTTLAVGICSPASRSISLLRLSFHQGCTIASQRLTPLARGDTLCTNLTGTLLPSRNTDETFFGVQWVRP

For “1F6 (clone ID in Table 3, alloy mouse hybridoma) (antibody)”, the cell binding [1] was 68900, the cell binding [2] was 225000 and the cell binding [3] was 239000.
